# Measurements as given in the supplement of paper PMC9112550, “Optimization of the antimicrobial peptide Bac7 by deep mutational scanning” (BMC Biology, 2022).
# Test system: Escherichia coli TOP10
# Experiment: shrunken log2 fold change of peptide-encoding DNA abundance (4.5 h post-induction vs induction); higher = less antimicrobial activity (less host growth inhibition)
# Conditions: time post-induction: 4.5 h; library: site-saturation at positions 5, 18, 19, 20
# 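Note: peptides expressed intracellularly from a pBAD plasmid library in pooled LB shake-flask culture, induced with 0.3% L-arabinose, DNA abundance read by NGS, three biological replicates, DESeq2 with apeglm shrinkage.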
row,Sequence,shrunken log2 fold change
1,RRIRTRPPRLPRPRPRPQDTPRP,-0.284
2,RRIRGRPPRLPRPRPRPLKWPRP,0.367
3,RRIRTRPPRLPRPRPRPFGLPRP,0.0236
4,RRIRTRPPRLPRPRPRPACDPRP,0.139
5,RRIRDRPPRLPRPRPRPEFNPRP,0.574
6,RRIRERPPRLPRPRPRPANEPRP,-0.916
7,RRIRSRPPRLPRPRPRPQDLPRP,-0.0949
8,RRIRLRPPRLPRPRPRPLNAPRP,-0.0775
9,RRIRVRPPRLPRPRPRPAWRPRP,0.712
10,RRIRSRPPRLPRPRPRPPVLPRP,0.0563
11,RRIRDRPPRLPRPRPRPNSKPRP,-0.506
12,RRIRGRPPRLPRPRPRPIGHPRP,0.39
13,RRIRIRPPRLPRPRPRPVLLPRP,-0.03
14,RRIRGRPPRLPRPRPRPEWCPRP,1.19
15,RRIRFRPPRLPRPRPRPFPKPRP,0.00183
16,RRIRSRPPRLPRPRPRPSDKPRP,-0.351
17,RRIRFRPPRLPRPRPRPYVKPRP,-0.787
18,RRIRCRPPRLPRPRPRPCTNPRP,-0.134
19,RRIRARPPRLPRPRPRPVFQPRP,0.000109
20,RRIRVRPPRLPRPRPRPLIQPRP,-0.351
21,RRIRWRPPRLPRPRPRPDSCPRP,-0.0201
22,RRIRVRPPRLPRPRPRPTADPRP,0.27
23,RRIRERPPRLPRPRPRPDYRPRP,-0.285
24,RRIRPRPPRLPRPRPRPSSFPRP,-0.345
25,RRIRGRPPRLPRPRPRPKQPPRP,1.08

row,Sequence,shrunken log2 fold change
1,RRIRNRPPRLPRPRPRPPFTPRP,0.0907
2,RRIRIRPPRLPRPRPRPCREPRP,-0.0225
3,RRIRLRPPRLPRPRPRPHMCPRP,-0.165
4,RRIRRRPPRLPRPRPRPLNFPRP,-0.115
5,RRIRWRPPRLPRPRPRPADKPRP,0.141
6,RRIRLRPPRLPRPRPRPPMNPRP,-0.114
7,RRIRLRPPRLPRPRPRPKCSPRP,-0.035
8,RRIRKRPPRLPRPRPRPPENPRP,1.15
9,RRIRHRPPRLPRPRPRPFKRPRP,0.0885
10,RRIRYRPPRLPRPRPRPIYCPRP,-0.15
11,RRIRVRPPRLPRPRPRPMRQPRP,0.0326
12,RRIRKRPPRLPRPRPRPQTGPRP,0.0141
13,RRIRGRPPRLPRPRPRPLHEPRP,0.74
14,RRIRVRPPRLPRPRPRPSDQPRP,-0.669
15,RRIRLRPPRLPRPRPRPKLYPRP,0.0148
16,RRIRFRPPRLPRPRPRPQLNPRP,-0.53
17,RRIRRRPPRLPRPRPRPMFSPRP,-0.0418
18,RRIRDRPPRLPRPRPRPPGWPRP,1.66
19,RRIRDRPPRLPRPRPRPYIKPRP,-0.565
20,RRIRYRPPRLPRPRPRPTAQPRP,0.0778
21,RRIRIRPPRLPRPRPRPGWLPRP,-0.0831
22,RRIRFRPPRLPRPRPRPGMEPRP,0.0216
23,RRIRNRPPRLPRPRPRPWYPPRP,-0.215
24,RRIRPRPPRLPRPRPRPKTMPRP,0.0176
25,RRIRTRPPRLPRPRPRPAFLPRP,0.228

row,Sequence,shrunken log2 fold change
1,RRIRYRPPRLPRPRPRPNHYPRP,-0.739
2,RRIRGRPPRLPRPRPRPKQNPRP,0.853
3,RRIRYRPPRLPRPRPRPNTGPRP,-0.195
4,RRIRKRPPRLPRPRPRPTKMPRP,0.229
5,RRIRFRPPRLPRPRPRPWSFPRP,-0.34
6,RRIRPRPPRLPRPRPRPKGVPRP,0.000119
7,RRIRGRPPRLPRPRPRPEWVPRP,0.875
8,RRIRFRPPRLPRPRPRPQPHPRP,0.166
9,RRIRSRPPRLPRPRPRPQCHPRP,-0.113
10,RRIRFRPPRLPRPRPRPCDWPRP,-0.0151
11,RRIRPRPPRLPRPRPRPDFNPRP,1.09
12,RRIRFRPPRLPRPRPRPAGKPRP,0.279
13,RRIRCRPPRLPRPRPRPTHIPRP,-0.326
14,RRIRQRPPRLPRPRPRPTTQPRP,0.0143
15,RRIRMRPPRLPRPRPRPQVAPRP,0.0435
16,RRIRIRPPRLPRPRPRPNTYPRP,-1.02
17,RRIRYRPPRLPRPRPRPMKWPRP,0.00957
18,RRIRTRPPRLPRPRPRPCHMPRP,-0.0872
19,RRIRCRPPRLPRPRPRPIEQPRP,0.0493
20,RRIRWRPPRLPRPRPRPQHKPRP,-0.0725
21,RRIRERPPRLPRPRPRPNGIPRP,-0.115
22,RRIRNRPPRLPRPRPRPSMAPRP,-0.139
23,RRIRVRPPRLPRPRPRPTGLPRP,0.000711
24,RRIRFRPPRLPRPRPRPYMLPRP,-0.61
25,RRIRYRPPRLPRPRPRPLQDPRP,0.0382

row,Sequence,shrunken log2 fold change
1,RRIRCRPPRLPRPRPRPDCIPRP,-0.027
2,RRIRPRPPRLPRPRPRPGVNPRP,-0.342
3,RRIRYRPPRLPRPRPRPVIEPRP,-0.424
4,RRIRGRPPRLPRPRPRPDHGPRP,-0.0602
5,RRIRFRPPRLPRPRPRPAMHPRP,0.234
6,RRIRQRPPRLPRPRPRPYMIPRP,0.00875
7,RRIRFRPPRLPRPRPRPYQYPRP,0.0631
8,RRIRVRPPRLPRPRPRPTYNPRP,-0.769
9,RRIRERPPRLPRPRPRPPGTPRP,0.152
10,RRIRLRPPRLPRPRPRPQSVPRP,-0.325
11,RRIRVRPPRLPRPRPRPFCVPRP,-0.0102
12,RRIRERPPRLPRPRPRPYWDPRP,-0.111
13,RRIRPRPPRLPRPRPRPCWPPRP,0.144
14,RRIRFRPPRLPRPRPRPTLPPRP,0.23
15,RRIRRRPPRLPRPRPRPETNPRP,0.596
16,RRIRFRPPRLPRPRPRPIFTPRP,-0.128
17,RRIRGRPPRLPRPRPRPENEPRP,0.686
18,RRIRIRPPRLPRPRPRPRTKPRP,0.161
19,RRIRPRPPRLPRPRPRPRIKPRP,-0.138
20,RRIRVRPPRLPRPRPRPPEQPRP,0.0662
21,RRIRLRPPRLPRPRPRPLRRPRP,0.249
22,RRIRWRPPRLPRPRPRPEGLPRP,0.267
23,RRIRRRPPRLPRPRPRPRFEPRP,0.582
24,RRIRVRPPRLPRPRPRPKVPPRP,-0.00247
25,RRIRLRPPRLPRPRPRPQACPRP,0.00768

row,Sequence,shrunken log2 fold change
1,RRIRYRPPRLPRPRPRPAHVPRP,-0.144
2,RRIRFRPPRLPRPRPRPGMWPRP,0.231
3,RRIRDRPPRLPRPRPRPSAFPRP,0.124
4,RRIRSRPPRLPRPRPRPCWYPRP,-0.393
5,RRIRKRPPRLPRPRPRPENIPRP,-0.0813
6,RRIRYRPPRLPRPRPRPEEYPRP,-0.255
7,RRIRLRPPRLPRPRPRPHLMPRP,-0.218
8,RRIRCRPPRLPRPRPRPNMTPRP,-0.229
9,RRIRERPPRLPRPRPRPQCMPRP,-0.586
10,RRIRFRPPRLPRPRPRPLILPRP,-0.739
11,RRIRRRPPRLPRPRPRPWEFPRP,0.00288
12,RRIRGRPPRLPRPRPRPMTFPRP,0.536
13,RRIRERPPRLPRPRPRPKSHPRP,-0.336
14,RRIRMRPPRLPRPRPRPVPEPRP,1.21
15,RRIRERPPRLPRPRPRPAYIPRP,-0.168
16,RRIRARPPRLPRPRPRPMAQPRP,0.23
17,RRIRYRPPRLPRPRPRPDKSPRP,-1.15
18,RRIRTRPPRLPRPRPRPWWAPRP,-0.134
19,RRIRGRPPRLPRPRPRPRIGPRP,0.779
20,RRIRERPPRLPRPRPRPEMVPRP,-0.0371
21,RRIRLRPPRLPRPRPRPNASPRP,0.0769
22,RRIRPRPPRLPRPRPRPWIPPRP,-0.225
23,RRIRQRPPRLPRPRPRPMDFPRP,0.015
24,RRIRSRPPRLPRPRPRPHGTPRP,-0.161
25,RRIRMRPPRLPRPRPRPMHWPRP,-0.0799

row,Sequence,shrunken log2 fold change
1,RRIRPRPPRLPRPRPRPVEVPRP,-0.0864
2,RRIRDRPPRLPRPRPRPSQQPRP,-0.123
3,RRIRWRPPRLPRPRPRPDYNPRP,-0.288
4,RRIRFRPPRLPRPRPRPFMAPRP,-0.417
5,RRIRRRPPRLPRPRPRPFWNPRP,0.0866
6,RRIRCRPPRLPRPRPRPKKDPRP,-0.000499
7,RRIRTRPPRLPRPRPRPPCDPRP,0.0499
8,RRIRCRPPRLPRPRPRPVERPRP,0.0133
9,RRIRARPPRLPRPRPRPYKEPRP,-0.423
10,RRIRIRPPRLPRPRPRPVLNPRP,-0.492
11,RRIRFRPPRLPRPRPRPNSHPRP,-0.432
12,RRIRVRPPRLPRPRPRPTAVPRP,0.327
13,RRIRDRPPRLPRPRPRPGGSPRP,0.25
14,RRIRLRPPRLPRPRPRPVNCPRP,-0.0144
15,RRIRPRPPRLPRPRPRPDQSPRP,0.021
16,RRIRHRPPRLPRPRPRPYQGPRP,-0.00674
17,RRIRERPPRLPRPRPRPPMGPRP,-0.107
18,RRIRNRPPRLPRPRPRPWLHPRP,-0.0277
19,RRIRLRPPRLPRPRPRPEQPPRP,0.437
20,RRIRYRPPRLPRPRPRPHIGPRP,0.0489
21,RRIRIRPPRLPRPRPRPEIHPRP,-0.0126
22,RRIRDRPPRLPRPRPRPFDGPRP,-0.192
23,RRIRMRPPRLPRPRPRPTIHPRP,-0.134
24,RRIRWRPPRLPRPRPRPPILPRP,0.27
25,RRIRVRPPRLPRPRPRPVLMPRP,0.107
